Measured values: US20250163162A1 (SYNTHEKINE, published 2025)
One block for each binder: values may come before it.

Target: T1, IL10Rα/IL2Rγ receptor (human, UniProt Q13651 22-578; P31785 23-369)
T1 sequence (looked up) 1: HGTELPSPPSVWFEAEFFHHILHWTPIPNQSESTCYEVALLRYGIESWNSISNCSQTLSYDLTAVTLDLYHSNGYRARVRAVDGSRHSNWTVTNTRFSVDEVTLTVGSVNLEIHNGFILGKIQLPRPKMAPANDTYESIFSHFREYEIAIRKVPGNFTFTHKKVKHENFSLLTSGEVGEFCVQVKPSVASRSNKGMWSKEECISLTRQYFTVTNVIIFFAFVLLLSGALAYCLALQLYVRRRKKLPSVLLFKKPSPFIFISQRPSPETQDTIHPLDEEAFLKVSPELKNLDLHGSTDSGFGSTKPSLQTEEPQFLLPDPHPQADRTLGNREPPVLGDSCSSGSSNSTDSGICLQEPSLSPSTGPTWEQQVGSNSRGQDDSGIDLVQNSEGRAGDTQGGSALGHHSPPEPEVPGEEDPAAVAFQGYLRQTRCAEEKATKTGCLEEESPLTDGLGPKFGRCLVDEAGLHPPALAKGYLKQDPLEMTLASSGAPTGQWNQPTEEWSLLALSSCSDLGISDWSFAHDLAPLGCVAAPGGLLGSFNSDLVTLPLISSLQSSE
T1 sequence (looked up) 2: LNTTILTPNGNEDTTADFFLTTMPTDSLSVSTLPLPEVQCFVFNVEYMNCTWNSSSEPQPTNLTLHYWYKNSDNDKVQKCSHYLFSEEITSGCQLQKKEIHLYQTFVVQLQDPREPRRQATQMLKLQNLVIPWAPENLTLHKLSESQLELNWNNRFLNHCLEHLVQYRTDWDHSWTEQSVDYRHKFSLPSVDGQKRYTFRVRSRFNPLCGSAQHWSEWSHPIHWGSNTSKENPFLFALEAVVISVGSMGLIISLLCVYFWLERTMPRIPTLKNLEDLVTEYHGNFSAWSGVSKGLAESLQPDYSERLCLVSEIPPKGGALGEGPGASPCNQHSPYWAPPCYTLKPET
Assay: cell-based or functional assay

- pSTAT3 MFI, B cells, 100 nM (unstimulated 1045): 1060 MFI
- pSTAT3 MFI, CD4+ T cells, 100 nM (unstimulated 1778): 3340 MFI
- pSTAT3 MFI, CD8+ T cells, 100 nM (unstimulated 1288): 2390 MFI
- pSTAT3 MFI, Monocytes, 100 nM (unstimulated 1787): 1890 MFI
- pSTAT3 MFI, NK cells, 100 nM (unstimulated 1149): 1280 MFI
B3: DR392(DR229-DR236) (bispecific antibody)
chain: QVQLQESGGGLVQPGGSLRLSCTASGFSFSSYPMTWARQAPGKGLEWVSTIASDGGSTAYAASVEGRFTISRDNAKSTLYLQLNSLKTEDTAMYYCTKGYGDGTPAPGQGTQVTVSSGGGSQVQLQESGGGSVQAGGSLRLSCAASRFTYSSYCMGWFRQAPGKEREGVASIDSDGSTSYTDSVKGRFTISKDNAKNTLYLQMNSLKPEDTAMYYCALDLMSTVVPGFCGFLLSAGMDYWGKGTQVTVSSASHHHHHH

- pSTAT3 MFI, B cells, 100 nM (unstimulated 1045): 1080 MFI
- pSTAT3 MFI, CD4+ T cells, 100 nM (unstimulated 1778): 3520 MFI
- pSTAT3 MFI, CD8+ T cells, 100 nM (unstimulated 1288): 2260 MFI
- pSTAT3 MFI, Monocytes, 100 nM (unstimulated 1787): 1860 MFI
- pSTAT3 MFI, NK cells, 100 nM (unstimulated 1149): 1290 MFI
B4: DR468(DR240-DR234) (bispecific antibody)
chain: QVQLQESGGGSVQAGGSLRLSCGASGYTYSSYCMGWFRQVPGKEREGVAVIDSDGSTSYADSVKGRFTISKDNGKNTLYLQMNSLKPEDTAMYYCAADLGHYRPPCGVLYLGMDYWGKGTQVTVSSGGGSQVQLQESGGGSVQAGGSLRLSCVASGYTFSSYCMGWFRQAPGKEREGVAALGGGSTYYADSVKGRFTISQDNAKNTLYLQMNSLKPEDTAMYYCAAAWVACLEFGGSWYDLARYKHWGQGTQVTVSSASHHHHHH

The remaining lines, values behind:

B1: DR444(DR236-DR234) (bispecific antibody)
chain: QVQLQESGGGSVQAGGSLRLSCAASRFTYSSYCMGWFRQAPGKEREGVASIDSDGSTSYTDSVKGRFTISKDNAKNTLYLQMNSLKPEDTAMYYCALDLMSTVVPGFCGFLLSAGMDYWGKGTQVTVSSGGGSQVQLQESGGGSVQAGGSLRLSCVASGYTFSSYCMGWFRQAPGKEREGVAALGGGSTYYADSVKGRFTISQDNAKNTLYLQMNSLKPEDTAMYYCAAAWVACLEFGGSWYDLARYKHWGQGTQVTVSSASHHHHHH
- pSTAT3 MFI, B cells, 100 nM (unstimulated 1045): 1070 MFI
- pSTAT3 MFI, CD4+ T cells, 100 nM (unstimulated 1778): 3700 MFI
- pSTAT3 MFI, CD8+ T cells, 100 nM (unstimulated 1288): 2410 MFI
- pSTAT3 MFI, Monocytes, 100 nM (unstimulated 1787): 1830 MFI
- pSTAT3 MFI, NK cells, 100 nM (unstimulated 1149): 1270 MFI

B2: DR449(DR237-DR233) (bispecific antibody)
chain: QVQLQESGGGSVQAGGSLRLSCAASGYTYSMYCMGWFRQAPGKEREGVAQINSDGSTSYADSVKGRFTISKDNAKNTLYLQMNSLKPEDTAMYYCAADSRVYGGSWYERLCGPYTYEYNYWGQGTQVTVSSGGGSQVQLQESGGGSVQAGGSLRLSCTASGFTFDDSDMGWYRQAPGNECELVSTISSDGSTYYADSVKGRFTISQDNAKNTVYLQMNSLKPEDTAVYYCAAEPRGYYSNYGGRRECNYWGQGTQVTVSSASHHHHHH
- pSTAT3 MFI, B cells, 100 nM (unstimulated 1045): 1090 MFI
- pSTAT3 MFI, CD4+ T cells, 100 nM (unstimulated 1778): 2700 MFI
- pSTAT3 MFI, CD8+ T cells, 100 nM (unstimulated 1288): 1880 MFI
- pSTAT3 MFI, Monocytes, 100 nM (unstimulated 1787): 1880 MFI
- pSTAT3 MFI, NK cells, 100 nM (unstimulated 1149): 1250 MFI
